One experiment deals with MBP-LIC1FL (human). Description: ITC; protein or peptide in the syringe titrated into the protein in the cell; 20 mM HEPES pH 7.5, 100 mM NaCl, 0.25 mM TCEP; temperature listed in the figures (20 °C for most titrations).
In another experiment the target is Hook1_(11–443) (human) (UniProt Q9UJC3). Description: ITC; MBP-LIC1FL in the syringe, Hook1_(11–443) in the cell; 30 °C; 20 mM HEPES pH 7.5, 100 mM NaCl, 0.25 mM TCEP.
A further experiment has as its target LIC1_(433–458) (human). Description: ITC; protein or peptide in the syringe titrated into the protein in the cell; 20 mM HEPES pH 7.5, 100 mM NaCl, 0.25 mM TCEP; temperature listed in the figures (20 °C for most titrations).
In a further experiment the target is MBP-LIC1_(1–461) (human). The experiment is described as above.

Sequence of Hook1_(11–166) (Q9UJC3 11-166): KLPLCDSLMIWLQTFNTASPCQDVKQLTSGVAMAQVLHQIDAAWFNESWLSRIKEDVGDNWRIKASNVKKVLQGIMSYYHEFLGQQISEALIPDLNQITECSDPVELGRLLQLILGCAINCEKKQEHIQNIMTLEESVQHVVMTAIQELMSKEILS
Sequence of Hook1_(11–443) (human) (Q9UJC3 11-443): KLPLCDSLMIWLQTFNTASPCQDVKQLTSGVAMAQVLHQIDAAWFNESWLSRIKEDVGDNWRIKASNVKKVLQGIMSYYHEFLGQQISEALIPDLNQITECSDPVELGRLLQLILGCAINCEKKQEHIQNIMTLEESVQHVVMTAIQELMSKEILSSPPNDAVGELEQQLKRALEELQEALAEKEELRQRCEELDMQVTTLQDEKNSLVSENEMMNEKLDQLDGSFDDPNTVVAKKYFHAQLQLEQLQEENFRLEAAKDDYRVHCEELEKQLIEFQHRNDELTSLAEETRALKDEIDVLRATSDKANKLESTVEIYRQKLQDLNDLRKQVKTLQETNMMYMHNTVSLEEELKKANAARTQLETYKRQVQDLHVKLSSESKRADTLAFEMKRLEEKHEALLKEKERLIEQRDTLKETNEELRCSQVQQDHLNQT

On to “Hook1_(1–239)GCN4 (from UniProt Q9UJC3-1 1-239)”, for which, in the experiment with MBP-LIC1FL (human), the Kd is 12.9 µM and the stoichiometry N was found to be 1.
In the experiment with Hook1_(11–443) (human), MBP-LIC1FL (natural protein) came in with an equilibrium dissociation constant (Kd) of 8.1 µM and a stoichiometry N of 1.
On to “Hook1_(11–166) (from UniProt Q9UJC3-1 11-166) (domain or fragment)”, for which the figures for the dissociation constant (Kd) with LIC1_(433–458) (human), in the experiment with MBP-LIC1_(1–461) (human) and in the experiment with MBP-LIC1FL (human) were 15.7 µM, 10.1 µM and 12.7 µM, respectively. For the same substance, the stoichiometry N in the experiment with MBP-LIC1FL (human) amounted to 1.

Values taken from publication PMC5841405.
